Laboratory results from the supplement of paper PMC9732359.
± gives the uncertainty stated by the source.

Assay: protein stability index of a GFP-peptide fusion (yeast GPS) (PSI 1-4); higher = more stable; sorted into four equal gates, so the index is relative within each strain
Outline: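 Mid-log yeast cultures in leucine-free medium, carrying a pooled plasmid library, were sorted into four equal gates by their GFP/Cherry fluorescence ratio. Each plasmid expressed Cherry along with GFP fused upstream of a tiled 17-residue yeast protein peptide. Plasmids recovered from each gate were PCR-amplified and Illumina-sequenced, with reads assigned to strains by barcodes. The protein stability index was obtained by summing each gate's read frequency weighted by its gate number.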

| Sequence | protein stability index (doa10∆) | protein stability index (pdr5∆) | protein stability index (san1∆) | protein stability index (ubr1∆) |
| --- | --- | --- | --- | --- |
| TETLTSKKIVPSPKKVA [SIR4] | 2.77 ± 0.089 | 2.87 ± 0.083 | 2.63 ± 0.066 | 2.55 ± 0.12 |
| TFDGKPTATPSPFRPLE [YMR153W/NUP53] | 3.02 ± 0.086 | 2.15 ± 0.087 | 2.38 ± 0.12 | 2.58 ± 0.071 |
| TFGKPEEEDSILSLEQS [YCS4] | 3.19 ± 0.091 | 3.19 ± 0.074 | 3.14 ± 0.057 | 3.13 ± 0.095 |
| TFLESINGINWRFHTPQ [SIN4] | 2.4 ± 0.054 | 1.86 ± 0.048 | 1.93 ± 0.12 | 2.02 ± 0.043 |
| TFRLPKTLKLARAPKYA [RPL25] | 1.69 ± 0.076 | 1.61 ± 0.072 | 1.23 ± 0.19 | 1.19 ± 0.047 |
| TFSYVDSSLQPEYFESP [YMR129W/POM152] | 3.22 ± 0.2 | 3.07 ± 0.13 |  | 3.08 ± 0.22 |
| TGAASNQSSFNFGNNGA [YOR098C/NUP1] | 2.65 ± 0.11 | 2.79 ± 0.099 | 2.5 ± 0.096 | 2.93 ± 0.074 |
| TGAGKGSIGAEVLQGLL [FAS2] | 3.48 ± 0.088 | 3.56 ± 0.063 | 3.47 ± 0.066 | 2.96 ± 0.067 |
| TGALINNLEPRQTTSNT [RPN11] | 3.12 ± 0.1 | 3.25 ± 0.15 | 2.62 ± 0.15 | 3.02 ± 0.076 |
| TGANFDDVERGVSRQIA [REC8] | 3.49 ± 0.11 | 3.63 ± 0.17 | 3.32 ± 0.24 | 3.58 ± 0.12 |
| TGATSLFGSSNNNNNNN [YGL172W/NUP49] | 2.39 ± 0.046 | 2.07 ± 0.038 | 2.34 ± 0.056 | 2.42 ± 0.043 |
| TGEAQVDNSPTTESNSR [YLR335W/NUP2] | 2.98 ± 0.086 | 2.83 ± 0.09 | 2.59 ± 0.13 | 3.06 ± 0.092 |
| TGGLFGAKPAGSTGGLG [YGL172W/NUP49] | 3.39 ± 0.13 | 3.42 ± 0.24 | 3.23 ± 0.1 | 3.54 ± 0.07 |
| TGHSQGLVTAVAIAETD [FAS1] | 3.25 ± 0.14 | 3.44 ± 0.078 | 3.29 ± 0.098 | 3.25 ± 0.095 |
| TGIFMAMHYSSNIELAF [COB] | 1.3 ± 0.065 | 1.51 ± 0.063 | 1.24 ± 0.12 | 1.5 ± 0.078 |
| TGKFVLQGQMEKIMILL [CSN12] | 1.61 ± 0.1 | 2.2 ± 0.12 | 1.31 ± 0.2 | 1.51 ± 0.12 |
| TGKITKMFQDIRLSKIL [CDC53] | 2.73 ± 0.07 | 3.03 ± 0.093 | 2.66 ± 0.071 | 2.86 ± 0.069 |
| TGLLIARRTLQKLGLDE [RPL5] | 3.2 ± 0.13 | 3.05 ± 0.17 | 3.39 ± 0.094 | 3.18 ± 0.16 |
| TGPFKVNGVPLRRVNAR [RPL6B] | 2.26 ± 0.13 | 2.49 ± 0.099 | 2.56 ± 0.095 | 2.72 ± 0.061 |
| TGWNAKTYGISDDIISQ [FAS2] | 1.99 ± 0.14 | 1.12 ± 0.12 | 1.72 ± 0.24 | 1.2 ± 0.091 |

| Sequence | protein stability index (doa10∆) | protein stability index (pdr5∆) | protein stability index (san1∆) | protein stability index (ubr1∆) |
| --- | --- | --- | --- | --- |
| TGYPDEPPAGVALPPGS [CYT1] | 2.84 ± 0.13 | 2.92 ± 0.11 | 2.65 ± 0.11 | 2.95 ± 0.067 |
| THEQWSNIQRNVLFLRL [SRP72] | 2.67 ± 0.062 | 2.38 ± 0.062 | 1.96 ± 0.077 | 2.45 ± 0.041 |
| THHTDIIPIVDYAQLDH [ARP9] | 2.58 ± 0.051 | 2.39 ± 0.041 | 2.66 ± 0.039 | 2.61 ± 0.031 |
| THVANFMNDAAADVSAV [YML103C/NUP188] | 2.79 ± 0.097 | 2.77 ± 0.073 | 2.44 ± 0.081 | 2.84 ± 0.049 |
| TIEDIAVAITRASKLKI [RPO31] | 1.63 ± 0.081 | 1.76 ± 0.063 | 2.1 ± 0.12 | 1.97 ± 0.06 |
| TINKAVQVKVLGKYEFS [ESC2] | 1.48 ± 0.077 | 1.37 ± 0.092 | 1.89 ± 0.18 | 2 ± 0.076 |
| TIPILESDSKATLQSNE [DSN1] | 2.8 ± 0.12 | 2.16 ± 0.11 | 2.36 ± 0.16 | 2.67 ± 0.081 |
| TIRQIILPDSLNLDSLL [SMD1] | 3.03 ± 0.076 | 2.67 ± 0.065 | 3.11 ± 0.055 | 2.7 ± 0.046 |
| TIRTRKVISNPLLARKQ [RPS24A] | 1.74 ± 0.1 | 1.88 ± 0.066 | 2.35 ± 0.13 | 1.87 ± 0.089 |
| TIVTGGGSGNGDDVVND [RPP1] | 3.14 ± 0.26 | 3.6 ± 0.17 | 3.22 ± 0.12 | 3.54 ± 0.21 |
| TIYNNIREGQNQKIPDN [SIR3] | 2.96 ± 0.05 | 3.18 ± 0.064 | 2.98 ± 0.056 | 3.02 ± 0.045 |
| TKANDKNESATINEMMK [FAS2] | 3.1 ± 0.084 | 3.17 ± 0.094 | 3.03 ± 0.062 | 3.11 ± 0.057 |
| TKEELESDGRMFIEEPT [SRP54] | 2.58 ± 0.091 | 3.11 ± 0.14 | 2.96 ± 0.099 | 2.71 ± 0.055 |
| TKFFDDAKSTPLRLRLY [RPN9] | 3.26 ± 0.24 | 3.02 ± 0.15 |  | 2.89 ± 0.17 |
| TKGDSTPVQPDLSVTPQ [YAR002W/NUP60] | 3.22 ± 0.036 | 3.16 ± 0.036 | 2.984 ± 0.028 | 3.098 ± 0.024 |
| TKGDTSKATGAPSANQG [RTT102] | 3.18 ± 0.065 | 3.35 ± 0.074 | 3.29 ± 0.045 | 3.24 ± 0.059 |
| TKGENYQLVKTLGEQLI [FAS2] | 3.06 ± 0.11 | 3.24 ± 0.13 | 2.6 ± 0.13 | 3.27 ± 0.15 |
| TKIIMATNRPDTLDPAL [RPT4] | 2.98 ± 0.065 | 3 ± 0.063 | 2.9 ± 0.054 | 3.12 ± 0.1 |
| TKLIISGQLNFEIDGDV [PCI8] | 2.57 ± 0.099 | 2.16 ± 0.093 | 1.87 ± 0.11 | 2.23 ± 0.055 |
| TKSGATTSEKQEVTNEA [GAL11] | 2.99 ± 0.28 | 3.52 ± 0.19 | 2.9 ± 0.28 |  |
